T1: Mte1 (GST tag cleaved off) (S. cerevisiae, UniProt P53227 1-271)
T1 sequence (looked up): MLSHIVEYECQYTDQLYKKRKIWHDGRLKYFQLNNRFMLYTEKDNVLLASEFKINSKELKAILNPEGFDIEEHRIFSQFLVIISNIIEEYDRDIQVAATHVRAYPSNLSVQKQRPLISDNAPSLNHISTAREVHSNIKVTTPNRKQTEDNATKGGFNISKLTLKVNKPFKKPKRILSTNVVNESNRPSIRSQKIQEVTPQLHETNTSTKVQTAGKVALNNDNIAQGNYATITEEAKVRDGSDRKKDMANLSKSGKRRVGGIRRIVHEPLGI


Experiments:
Assay in all cases: pull-down
[1] = target: T1, Mte1 (GST tag cleaved off)
[2] = target: MHF complex (Mhf1-Mhf2) (S. cerevisiae, UniProt Q3E835 1-90; Q3E829 1-80)
[3] = target: Mph1-MHF complex (S. cerevisiae, UniProt P40562 1-993; Q3E835 1-90; Q3E829 1-80)

Row | binding result [1] | binding result [2] | binding result [3] | Binder
1 | binds | binds |  | MBP-tagged Mph1(754–993) (domain or fragment, S. cerevisiae, UniProt P40562 754-993, looked up) SNENPSKKRKIFKALDNLENDSTEEASSSLETEDEEVSDDNNVFIAEGQNGCQKDLETAIIRTGESLTTLKPLHNFERPNMALFVNDCGLPTKIEKNVKDIRGNQHNLEKEKSCTVDKNNMVLSLDDWNFFRNRYIPEGVSFDVEPNFVQYTKGVKVPHCHKVSKIITLFNDESNDNKKRTIDMNYTKCLARGMLRDEKKFVKVNDKSQVDNNSVNHDSSQSFTLSNAELDDILGSDSDF
2 |  |  | binds | GST-Mte1 fragment 201-271 (domain or fragment) LHETNTSTKVQTAGKVALNNDNIAQGNYATITEEAKVRDGSDRKKDMANLSKSGKRRVGGIRRIVHEPLGI
